Laboratory results from patent US20250263466A1 (VIR BIOTECHNOLOGY, published 2025).
Substitutions are numbered along the chain they refer to.

T1: MERS-CoV S protein (London1/2012) expressed on ExpiCHO cells (MERS-CoV, UniProt K9N5Q8 18-1353)
T1 sequence: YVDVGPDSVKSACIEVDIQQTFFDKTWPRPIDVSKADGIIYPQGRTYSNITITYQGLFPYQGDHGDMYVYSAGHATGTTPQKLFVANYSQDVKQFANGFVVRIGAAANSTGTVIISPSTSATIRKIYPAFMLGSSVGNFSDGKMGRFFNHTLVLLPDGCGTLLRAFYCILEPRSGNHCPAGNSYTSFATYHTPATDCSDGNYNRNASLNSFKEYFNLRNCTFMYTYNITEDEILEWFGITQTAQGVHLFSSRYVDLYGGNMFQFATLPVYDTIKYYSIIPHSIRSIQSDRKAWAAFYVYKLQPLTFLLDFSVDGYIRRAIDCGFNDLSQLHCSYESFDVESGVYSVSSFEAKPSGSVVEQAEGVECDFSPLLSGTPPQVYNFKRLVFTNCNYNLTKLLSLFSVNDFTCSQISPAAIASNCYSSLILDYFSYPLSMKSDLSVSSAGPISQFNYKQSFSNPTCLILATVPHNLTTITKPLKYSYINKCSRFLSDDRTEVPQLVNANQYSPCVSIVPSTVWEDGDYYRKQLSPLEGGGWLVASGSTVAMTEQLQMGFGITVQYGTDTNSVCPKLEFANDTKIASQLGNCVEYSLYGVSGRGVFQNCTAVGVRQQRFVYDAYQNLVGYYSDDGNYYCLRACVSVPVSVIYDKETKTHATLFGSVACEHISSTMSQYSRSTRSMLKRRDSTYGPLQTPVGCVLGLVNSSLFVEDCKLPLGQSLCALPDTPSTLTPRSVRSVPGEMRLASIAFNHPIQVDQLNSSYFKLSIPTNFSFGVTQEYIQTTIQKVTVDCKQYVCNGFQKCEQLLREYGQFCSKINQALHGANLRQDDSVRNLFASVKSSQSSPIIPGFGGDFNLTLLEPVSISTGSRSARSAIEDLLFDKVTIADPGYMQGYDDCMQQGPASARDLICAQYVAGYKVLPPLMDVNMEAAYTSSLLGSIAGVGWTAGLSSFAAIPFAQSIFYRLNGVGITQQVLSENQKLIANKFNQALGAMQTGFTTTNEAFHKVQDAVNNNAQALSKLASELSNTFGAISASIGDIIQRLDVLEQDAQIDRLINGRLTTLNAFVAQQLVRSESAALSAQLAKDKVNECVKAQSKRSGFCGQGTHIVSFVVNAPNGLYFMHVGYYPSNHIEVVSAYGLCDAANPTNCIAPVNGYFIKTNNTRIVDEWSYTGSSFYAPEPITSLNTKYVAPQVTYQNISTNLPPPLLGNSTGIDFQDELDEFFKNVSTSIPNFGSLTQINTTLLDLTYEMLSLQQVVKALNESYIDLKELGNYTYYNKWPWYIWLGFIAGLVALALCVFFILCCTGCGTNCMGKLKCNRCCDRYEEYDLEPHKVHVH

B1: nCoV-2 mAb (antibody, V domains shown)
VH: DVQLLESGGGLVQPGGSLRLSCAASGFSFSSYAMTWVRQAPGKGLEWVATMSASGDSTNDADSVKGRFTISRDNSKNTLFLQMNSLRPEDTAVYYCASPLRNYGDLLYWGQGTLVTVSS
VL: DIQMTQSPSTLSASVGDRVTITCRASQNIHRFLAWYQQKPGKAPKLLIYTASSLESGVPSRFSGSGFGTEFTLTISSLQPDDFATYYCQQYNSYSWTFGQGTKVEIK
B2: nCoV-3 mAb (antibody, V domains shown)
VH: EVQLLESGGGLVQPGGSLRLSCTASGFTFASYAMTWVRQAPGKGLEWVSTISGGGGDTYSADSVKGRFTISRDNSKSTLYLQMNSLRAADTALYYCARLESATQPLGYYFYGMDVWGQGTTVTVSS
VL: SYELTQPPSVSVSPGQTARITCSGDALPKQYAFWYQQRPGQAPVLVISKDSERPSGIPERFSGSSSGTTVTLTISGVQAEDEADYYCHSADISATSWVFGGGTKLTVV
B3: nCoV-5 mAb (antibody, V domains shown)
VH: QMQLVQSGPEMKKPGTSVKVSCKASGFTFSKTTLQWVRQARGQRPEWIGWIVLGSGNTNYAHYFQARVTITRDMSTSTAYMELSSLSSEDTAVYYCAAEMATIQNYYYYYGMDVWGQGTTVTVSS
VL: DIQMTQSPSSLSASVGDRVTITCRASQSINYYLNWYQQKPGKAPNLLIYAASSLPGGVPSRFSGSGSGTDFTLTITSLQPEDFATYFCQQSYSTPPTFGQGTKLEIK
B4: nCoV-6 mAb (antibody, V domains shown)
VH: QVTLKESGPVLVKPTETLTLTCTVSVFSLSNARMGVSWIRQPPGKALEWLAHIFSSDQKSYSTSLKSRLTISKDTSKSQVVLTMTNMDPEDTGTYYCARINTAAYDYDSTTFDIWGQGTMVTVSS
VL: DIQMTQSPSSLSASVGDRVTITCRASQTISNYLNWYQQKPGKAPKLLLYAASSLQSGVPSRFSGSGSGTDFTLTISSLQLEDFATYYCQQSYSTPPTFGGGTKVEIK
B5: nCoV-7 mAb (antibody, V domains shown)
VH: QEQVVESGGGVVQPGKSLRLSCAASGFSLNDFAIHWVRQAPGKRLEWVAIISYDGRVKFYADSVKGRFTISRDSSVHLQMDSLRPEDTGLYYCARDSSWQSTGWPINWFDRWGRGTLVTVSS
VL: EIVLTQSPATLSLSPGQRATLSCRASQSVLSSLAWYQHKPGQAPRLLIYDASSRATGVPARFSGSGSETDFTLTISSLEPEDFAVYYCQQRSNWPPTFGQGTKVEIK
B6: nCoV-8 mAb (antibody, V domains shown)
VH: EVLLVESGGGLVQPGRSLRLSCVVSGFTFDYYAMHWVRQAPGKGLEWVSGISWNSDNTDYADSVKGRFTISRDNAKNSLYLQMNSLKTEDTALYYCAKDISLVFWSVNPPRNGMDVWGQGTTVTVSS
VL: B4 VL with T28S, S30R, N31S, K45N, L48I, A50T, L80P, T94S, P96L
B7: nCoV-9 mAb (antibody, V domains shown)
VH: QVLLVESGGGVVQPGMSLRLSCAASGFTFSSYAMHWVRQAPGKGLEWVAVISYDGSTKFYADSVRGRFPISRDNSKNTVYLQMNSLRPEDTAVYYCATVSVEGYTSGWYLGTLDFWGQGTPVTVSS
VL: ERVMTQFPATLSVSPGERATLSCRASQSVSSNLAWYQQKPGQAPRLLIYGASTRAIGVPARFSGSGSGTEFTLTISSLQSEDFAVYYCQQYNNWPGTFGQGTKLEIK
B8: nCoV-11 mAb (antibody, V domains shown)
VH: LVQLVESGGGVVQPGRSLRLSCAGSGFTFSSYGMHWVRQTPGKGLEWVAVISFDGRNKFYADPVKGRFTISRDNSKNTVFLELDSLTTEDTAFYYCARDDNLDRHWPLRLGGYWGQGTLVTVSS
VL: EIVMTQSPLSLPVTLGQPASISCRSSQDLLYNDGGTDLNWFQQRPGQSPRRLIYRVSNRDSGVPDRFSGSGSGSDFTLKISRVEAEDVGIYYCMQGAHWPPTFGPGTKVEIK
B9: nCoV-12 mAb (antibody, V domains shown)
VH: QVQLVESGGGVVQPGRSLRLSCAGSGFTFSSFGLHWVRQAPGKGLEWLALISDEGRIKYYANSVKGRFFISRDNSKNTLYLQMNSLRGEDTAVYYCARDVKGHIVVMTSLDYWGQGALVTVSS
VL: DVVMTQSPLSLPVTLGQPASISCRSSQSLVSSDGDTSLSWFQQRPGQSPRRLIYEVSNRDSGVPDRFSGSGSGTDFTLKISRVEAEDVGVYYCMQGTHWPPTFGQGTKVEIK
B10: nCoV-13 mAb (antibody, V domains shown)
VH: EVQLVESGGGLVKPGGSLRLSCAASGFTFSNYNMNWVRQAPGKGLEWVSSIGSSSTYIYSADSVKGRFTISRDNAMNSLFLQMKSLRAEDTAVYYCARGFERYYFDSWGQGTLVTVSS
VL: QSVLTQPPSASGTPGQRVTISCSGSTSNIGTNVVNWYQQLPGTAPKLLIYSNNQRPSWVPDRFSGSKSGTSASLAISGLQSEDEADYYCVAWDDILNAVVFAGGTKLTVL
B11: nCoV-14 mAb (antibody, V domains shown)
VH: QVQLVHSGAEVKKPGASVRVSCKASGYTYTAYYIHWLRQAPGQGLEWMGWINADNGDTHSVQKFQGRVTMTRDTSINTAYLEVSRLKSDDTAVYYCARGDVPVGTGWVFDFWGQGTLVTVSS
VL: DIQMTQSPSSLSASVGDSVTISCRASQTINNFLNWYQQKPGKAPNLLIYGAYNLQSGVPSRFSGSGSGTDFTLTISSLQPEDVAIYYCQQSLSMVTFGQGTRLDIK
B12: nCoV-15 mAb (antibody, V domains shown)
VH: EVQLVESGGGLVTPGRSLRLSCTASGFTFGDYALSWFRQAPGKGLEWVAFIRSKAYGGTTEYAASVKGRFTISRDDSQIIVYLQMDSLKTEDTAVYYCSWIHRIVSWGQGTLVTVSS
VL: DIQMTQSPSSLSASEGDRVTITCQASQDISIYLNWFQQKPGKAPKLLIYEASNLKTGVPSRFSGSGSGTDFTFTISSLQPEDIATYYCQQYDNLPYTFGQGTKLEIK
B13: nCoV-16 mAb (antibody, V domains shown)
VH: QVQLVESGGGVVQPGRSLRLSCAASGFTFSSYGMHWVRQAPGKGLEWVAFISYDGSNIQYADSVQGRFTISRDNSKTTLYLQMNSLRVEDTAMYYCAKDLFGYCRSTSCESLDDWGQGALVTVSS
VL: DIQLTQSPSFLSASVGDRVTITCRASQGISSYLAWYQQKPGKAPKLLIYAASTLQSGVPSRFSGTGYGTEFTLTISSLQPEDFATYYCQQLNNYPLTFGGGTKVEIK
B14: nCoV-17 mAb (antibody, V domains shown)
VH: QVQLVESGGGVVQPGRSLRLSCAASGFTFSSYAIHWVRQAPGKGLEWLAVISFDGRHKYYADSVKGRFTISRDNSKNTVYLQMNSLRVEDTAVYSCARDIRHLIVVVSDMDVWGQGTTVTVSS
VL: B9 VL with S31N, S39N, E55K, F67I, V109L
B15: nCoV-18 mAb (antibody, V domains shown)
VH: QVQLVQSGAEVRQPGTSVKVSCKASGYTFMNNDITWVRQAPGQVLQWMGWIRPSNGNTNYAQKFQGRVTLTTDTSTNTAHMELRSLKSDDTAVYYCARQSHSTRGGWHFSPWGQGTLVTVSS
VL: DIQMTQSPSSLSASVGDRVTITCRPSQPISYFLNWYQQTPGKAPKLLIYAASSLQSGVPSRFSGSGSGTDFTLTISSLQPEDSATYYCQQSYSVPYTFGQGTKLEIK
B16: nCoV-4 mAb (antibody, V domains shown)
VH: QVQLVESGGGVVQPGRSLRLSCEASGFTLRTSSLHWVRQAPGKGLEWVAVISNDGATKFYADAVKGRFTISRDNSNNKIYLQLNGLKPEDTAVYYCARETRHYSHGLNWFDPWGQGTLVNVSS
VL: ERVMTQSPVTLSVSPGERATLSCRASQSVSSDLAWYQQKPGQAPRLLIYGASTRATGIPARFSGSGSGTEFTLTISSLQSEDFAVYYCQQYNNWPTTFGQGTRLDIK

target: T1, MERS-CoV S protein (London1/2012) …; test: flow cytometry on ExpiCHO cells transfected with MERS-CoV S

Row | Binder | binding result
1 | B1 | no binding (tested: 10 µg/ml)
2 | B2 | no binding (tested: 10 µg/ml)
3 | B3 | no binding (tested: 1 µg/ml)
4 | B4 | no binding (tested: 10 µg/ml)
5 | B5 | no binding (tested: 2 µg/ml)
6 | B6 | no binding (tested: 1.5 µg/ml)
7 | B7 | no binding (tested: 8.5 µg/ml)
8 | B8 | no binding (tested: 10 µg/ml)
9 | B9 | no binding (tested: 0.8 µg/ml)
10 | B10 | no binding (tested: 7 µg/ml)
11 | B11 | no binding (tested: 10 µg/ml)
12 | B12 | no binding (tested: 0.8 µg/ml)
13 | B13 | no binding (tested: 10 µg/ml)
14 | B14 | no binding (tested: 10 µg/ml)
15 | B15 | no binding (tested: 10 µg/ml)
16 | B16 | no binding (tested: 10 µg/ml)

target: SARS-CoV S protein (Urbani strain) expressed on ExpiCHO cells (SARS-CoV, UniProt P59594 14-1255); test: flow cytometry on ExpiCHO cells transfected with SARS-CoV S

Row | Binder | binding result
17 | B1 | binds
18 | B2 | binds
19 | B3 | binds
20 | B4 | binds
21 | B5 | binds
22 | B6 | binds
23 | B7 | binds
24 | B8 | binds
25 | B9 | binds
26 | B10 | binds
27 | B11 | binds
28 | B12 | binds
29 | B13 | binds
30 | B14 | binds
31 | B15 | binds
